From paper PMC7478360 come the findings set out here.

The target in data set [1] is T1, thrombin (human (plasma), UniProt P00734;P00734 328-363;364-622). As to the kind of experiment: graphene FET, Dirac voltage shift.
The target in data set [2] is T1, thrombin. As to the kind of experiment: graphene FET, real-time drain current.
The target in data set [3] is T1, thrombin. As to the kind of experiment: graphene FET, Dirac voltage shift. This is another data set of the same source.

As a reminder, the Kd is the concentration at which binding is half-saturated.

Take CCATCTCCACTTGGTTGGTGTGGTTGG (structured_DNA, 5' NH2-(CH2)6, amide-coupled to PBASE on graphene) [anti-thrombin DNA aptamer]: the Kd worked out at 0.376 nM with thrombin [1] and 0.732 nM with thrombin [2].
With ATCAGGGCTAAAGAGTGCAGAGTTACTTAG (ssDNA, 5' NH2-(CH2)6, amide-coupled to PBASE on graphene) [anti-lysozyme DNA aptamer], in the data set with thrombin [3], the binding result is listed as “no binding”.
